Data taken from patent publication US20230067811A1, “MODULATING LYMPHATIC VESSELS IN NEUROLOGICAL DISEASE” (University of Virginia Patent Foundation, priority 2020, published 2023).

Legend:
human LECs = assay: Human LECs incubated with Aβ42, bulk RNA-seq; assay type: cell-based; conditions: 100 nM, 24 h, vs scrambled peptide
Method: To determine whether the increased levels of Aβ alone could account for the observed changes in the LEC transcriptome, human LECs were incubated with 100 nM human Aβ1-42 (a monomeric/dimeric preparation) or control scrambled human Aβ1-42 peptide for 24 or 72 h (FIG. 5J).
Cultures of human LECs. […]
Bulk RNA sequencing. […] The mergedfastq files were then chastity filtered to remove low quality bases, trimmed using the trimmomatic software, and mapped to the UCSC […] genome using Salmon (Harrow, J. et al. GENCODE: the reference human genome annotation for The ENCODE Project. Genome Res 22, 1760-1774, (2012); Patro, R., Duggal, G., Love, M. I., Irizarry, R. A. & Kingsford, C. Salmon provides fast and bias-aware quantification of transcript expression. Nat Methods 14, 417-419, (2017)). […] The resulting transcript abundances were read into R and summarized using tximport (Soneson, C., Love, M. I. & Robinson, M. D. Differential analyses for RNA-seq: transcript-level estimates improve gene-level inferences. F1000Res 4, 1521, (2015)). […]

5×FAD mice = assay: Meningeal lymphatic and blood vessel morphology after i.c.m. AAV1-mVEGF-C plus anti-Abeta antibody; assay type: in vivo, mouse; conditions: adult 5×FAD mice, AAV1 vector i.c.m., meningeal whole mounts
Method: Adult 5×FAD mice were treated with a combination of VEGF-c and an antibody that binds amyloid beta (ABETA Mab1) administered into the cisterna magna (i.c.m). After administration of AAV1 vector expressing VEGF-c or eGFP and the antibody according to schematic shown in FIG. 1A, brain and meningeal morphology was observed. Representative images of the meningeal whole-mounts of 5×FAD mice treated with different combinations of mIgG2a or monoclonal anti-amyloid beta antibody (“ABETA Ab”) with AAV1-CMV-eGFP or AAV1-CMV-mVEGF-C are shown in FIG. 1B. Meninges were stained for LYVE-1 and CD31; scale bar, 1 mm; inset, 300 m (FIG. 1B) Measurements of transverse sinus diameter, coverage by LYVE-1negCD31^+ blood vessels, total number of lymphatic branches, transverse sinus lymphatic vessel diameter and coverage by LYVE-1+ lymphatic vessels (See FIGS. 1C-1G). Results in FIGS. 1C-1G are presented as mean±s.e.m.; n=7 in eGFP+mIgG2a, n=6 in eGFP+ABETA Ab, in mVEGF-C+mIgG2a and in mVEGF-C+ABETA Ab; Two-way ANOVA with Sidak's multiple comparison test. In FIGS. 1D and 1G, the units for the Y-axis are percentage of field of view (“% FOV”).
Science 352, 712-716, (2016)) or microhemorrhages in the brain and meninges (Salloway, S. et al. Two phase 3 trials of bapineuzumab in mild-to-moderate Alzheimer's disease. […]

APPswe mice = assay: Brain Aβ plaques in aged APPswe mice after i.c.m. AAV1-mVEGF-C plus anti-Abeta antibody; assay type: in vivo, mouse; conditions: with anti-amyloid beta antibody, vs eGFP vector
Source text: Age of APPswe mice and treatment regimen of anti-amyloid beta antibody with AA1 vector expressing VEGF-c or eGFB via i.c.m are shown in FIG. 3A. Results of behavioral tests (open field (OF), novel location recognition (NLR) and contextual fear conditioning (CFC)) are shown in FIGS. 3B-3D. […] Time investigating one of the object location (% of total time investigating objects) in the training trial and time investigating the novel object location (% of total time investigating) in the NLR test are shown in FIG. 3C. Representative images of the brain sections of APPswe mice treated with anti-Abeta antibody and with AAV1-CMV-eGFP or AAV1-CMV-mVEGF-C are shown in FIG. 3E. Brain sections were stained for Aβ and with DAPI; scale bar, 1 mm. FIGS. 3F-3G show plaque density (number of plaques per mm^2), average size (m^2) and coverage (% of brain section) in the cortex and amygdala or in the hippocampus. Results in FIGS. 3B-3D, 3F, and 3G are presented as mean s.e.m.; n=11 per group; Two-tailed unpaired Student's T test.
Intra-cisterna magna and intravenous injections. Mice were anaesthetized by intraperitoneal (i.p.) injection of a mixed solution of ketamine (100 mg/Kg) and xylazine (10 mg/Kg) in saline. […]
Immunohistochemistry, imaging and quantifications. […]

[1] = system: meningeal lymphatic vessels; conditions: Example 4 of WO2017/210343; cited from earlier work

Aβ1-42: synthetic monomeric/dimeric human amyloid beta 1-42 peptides (Anaspec AS-20276)
gene expression in human LECs (human LECs): Changes in gene expression

B1: VEGF-c: VEGFR3 agonist polypeptide (SEQ ID NO: 1), flow modulator; in Examples 1-3 delivered by AAV1 vector expressing VEGF-c (protein, listed as Homo sapiens)
chain: MHLLGFFSVACSLLAAALLPGPREAPAAAAAFESGLDLSDAEPDAGEATAYASKDLEEQLRSVSSVDELMTVLYPEYWKMYKCQLRKGGWQHNREQANLNSRTEETIKFAAAHYNTEILKSIDNEWRKTQCMPREVCIDVGKEFGVATNTFFKPPCVSVYRCGGCCNSEGLQCMNTSTSYLSKTLFEITVPLSQGPKPVTISFANHTSCRCMSKLDVYRQVHSIIRRSLPATLPQCQAANKTCPTNYMWNNHICRCLAQEDFMFSSDAGDDSTDGFHDICGPNKELDEETCQCVCRAGLRPASCGPHKELDRNSCQCVCKNKLFPSQCGANREFDENTCQCVCKRTCPRNQPLNPGKCACECTESPQKCLLKGKKFHHQTCSCYRRPCTNRQKACEPGFSYSEEVCRCVPSYWKRPQMS
lymphatic diameter (5×FAD mice): increased lymphatic diameter | number of plaques in the cortex and amygdala (APPswe mice): reduced the number of plaques | number of plaques in the hippocampus (APPswe mice): reduced the number of plaques | diameters of meningeal lymphatic vessels [1]: increase the diameters of meningeal lymphatic vessels
